The values that follow come from paper PMC8222386.

For experiment [1], the target named is iLight (evolved photosensory core module of Idiomarina sp. bacterial phytochrome IsPadC) (Idiomarina sp. A28L).
For experiment [2] the target is unchanged. The source holds these as a separate data set.
Experiment [3] has the same target. This is another data set of the same source.
Experiment [4] shares this target. Nature of the experiment: native gel or EMSA + SEC; Pr state: purified protein illuminated with 780/30 nm light (2 mW/cm2, 0.5 h) in 20 mM HEPES pH 7.7, 300 mM NaCl; native PAGE 4-20% gradient gel, 20 ug per lane, run in darkness, ZnCl2 staining; SEC on HiLoad 16/600 Superdex 200 in darkness, protein at 1.9 mg/ml.
The target is the same in experiment [5]. The experiment is described as follows: native gel or EMSA + SEC; Pfr state: purified protein illuminated with 660/15 nm light (2 mW/cm2, 0.5 h) in 20 mM HEPES pH 7.7, 300 mM NaCl; native PAGE 4-20% gradient gel, 20 ug per lane, run in darkness, ZnCl2 staining; SEC on HiLoad 16/600 Superdex 200 in darkness, protein at 1.9 mg/ml; step: dimers to tetramer.
The target in experiment [6] is wild-type IsPadC-PCM (photosensory core module of Idiomarina sp. A28L phytochrome-activated diguanylyl cyclase) (Idiomarina sp. A28L). The experiment is described as follows: native gel or EMSA; native PAGE of Fig. 3f, 20 ug per lane, ZnCl2 staining for bound biliverdin; illumination state not told for this statement; step: monomers to dimer.

“iLight (evolved photosensory core module of Idiomarina sp. bacterial phytochrome IsPadC) (domain or fragment)” registered a repression of the ColE-driven mCherry reporter in E. coli by LexA408-DBD-iLight-msfGFP, 660 nm light against darkness in experiment [1] of 115 fold. For the same substance, in experiment [2], the SEAP reporter production in HeLa cells with NLS-Gal4-DBD-iLight-VP16 after 48 h of 660 nm light against darkness, exogenous biliverdin from none (~20.5-fold) to 10 uM lay within 65 to 70 fold and the time course of SEAP reporter production in HeLa cells with NLS-Gal4-DBD-iLight-VP16, 660 nm light against darkness, 24 h (~19-fold) to 72 h was 70 fold. In experiment [3], this substance gave an RLuc8 reporter signal in livers of mice co-transfected with NLS-Gal4-DBD-iLight-VP16 and pG12-RLuc8, 24 h of 660 nm light against darkness of 6 fold. For the same substance, in experiment [4], the stoichiometry N turned out to be 2. Further, in experiment [5], the stoichiometry N turned out to be 4.

Take “wild-type IsPadC-PCM (photosensory core module of Idiomarina sp. A28L phytochrome-activated diguanylyl cyclase) (domain or fragment)”: the stoichiometry N in experiment [6] was determined as 2.
